# According to paper PMC10275983 (Nature Communications, 2023):
# No end group written: not given here.
# Target: S1-RBD (ACROBiosystems SPD-C82E9) (SARS-CoV-2 (Wuhan-Hu-1 strain), UniProt P0DTC2 319-541)
# Experiment: SPR
# Details: both partners purified
row,Binder,binding result
1,ACPYVAGRGTCLLCA (not fully specified (bridges); cysteine pairing not given here) [E2 Bicycle (canonical exemplar of epitope group 2)],binds
2,ACEYVGPMCYRLYCA (not fully specified (bridges); also: Bicycle) [E1 Bicycle (exemplar of epitope group 1)],binds
3,"ACANPDNPVCRFYCA (not fully specified (bridges); also: bicyclic peptide, scaffold not named) [E5 Bicycle (canonical exemplar of epitope group 5)]",binds
4,"ACEDNDWVYCSTCA (not fully specified (bridges); also: bicyclic peptide, scaffold not named) [E3 Bicycle (exemplar of epitope group 3)]",binds
